{
  "source": "patent US20140017790A1",
  "about": "“CONTROL AGENT FOR CONTROLLING UNDIFFERENTIATED STATE AND USE THEREOF” (RIKEN, priority 2011, published 2014)",
  "molecules": {"B1": {"name": "CCL2: mouse recombinant CCL2 (MCP-1, #479-JE-010, R&D Systems); in Examples 1, 3, 4(1), 5 mouse CCL2 (SEQ ID NO: 3) overexpressed from Ccl2 expression vector (protein, listed as Mus musculus)", "chain": "MQVPVMLLGLLFTVAGWSIHVLAQPDAVNAPLTCCYSFTSKMIPMSRLESYKRITSSRCPKEAVVFVTKLKREVCADPKKEWVQTYIKNLDRNQMRSEPTTLFKTASALRSSAPLNVKLTRKSEANASTTFSTTTSSTSVGVTSVTVN"}},
  "type_in_all_cases": "cell-based",
  "key": {"STAT3": {"system": "STAT3", "test": "Western blotting, phosphorylation of STAT3 in mouse iPS cells", "conditions": "CCL2 overexpressed, 24 hours, relative to negative control", "procedure": "The mouse iPS cells transfected with the Ccl2 expression vector were cultured for 24 hours in the same manner as in Example 1. After the culture, the mouse iPS cells were washed with PBS, and then were suspended in 100 μl of a mammalian m-PER lysis buffer. The suspension was passed through a 26-gauge needle for 10 minutes to homogenize the cells. Then, the suspension was centrifuged at 13,000 rpm and 4° C. for 5 minutes, and the supernatant was collected. The protein concentration in the supernatant was measured using a Pierce (registered trademark) BCA Protein assay (trade name, Thermo Scientific). Next, the supernatant was subjected to Western blotting to detect a target protein. […] Then, luminescence on the membrane was detected using a Fuji LAS-3000 luminescent image analyzer.\nAs the primary antibody, an anti-phosphorylated STAT3 antibody (anti-pSTAT3 antibody, commercially available from CST, #9145) was used for the phosphorylated STAT3 (pSTAT3), an anti-STAT3 antibody (CST, #9132) was used for the STAT3 protein, and an anti-GAPDH antibody (Santa Cruz Biotechnology Inc, #25778) was used for GAPDH, which is an expression control. […] Then, the ratio of the phosphorylated STAT3 to the non-phosphorylated STAT3 (pSTAT3/STAT3) was determined. […]"}, "human iPS cells [1]": {"system": "human iPS cells", "test": "phase-contrast morphology of human iPS cells with JAK or PI3K inhibitor", "conditions": "inhibitor not added (DMSO added), 6 days; bFGF(+)/CCL2(-) or bFGF(-)/CCL2(+)", "procedure": "As a JAK inhibitor, a JAK inhibitor I (Merck) was used. As PI3K inhibitor, the same LY294002 as used in Example 4 was used. Human iPS cells were cultured for 6 days under feeder conditions in the same manner as in the above item (1), except that not only the CCL2 but also the JAK inhibitor or the PI3K inhibitor further was added to the medium. In the medium, the concentration of the Jak inhibitor was set to 10 ng/ml, and the concentration of the PI3K inhibitor was set to 5 ng/ml.\nFurthermore, as a control, the cells were cultured in the same manner as in the above using the following media, respectively: a medium containing bFGF instead of the CCL2 and containing DMSO (5 ng/ml) instead of the inhibitor; and a medium containing bFGF (5 ng/ml) instead of the CCL2 and containing the inhibitor.\nThe phase-contrast micrographs show the results obtained under the conditions of, from the above: the inhibitor not added (DMSO added); the JAK inhibitor added; and the PI3K inhibitor added."}, "AKT": {"system": "AKT", "test": "Western blotting, phosphorylation of AKT in human iPS cells", "conditions": "feeder conditions, 6 days, versus negative control (bFGF)", "procedure": "With respect to the supernatant prepared in the above item (1), the target protein detection was carried out in the same manner as in Example 4. Furthermore, as a negative control, the target protein detection was carried out in the same manner, except that bFGF was added instead of the CCL2.\nThen, the ratio of the phosphorylated AKT to the non-phosphorylated AKT (p-AKT/AKT) was determined. Assuming that the value of the p-AKT/AKT in the negative control was “1”, the relative value was calculated. Also, the ratio of the KLF4 gene expression to the GAPDH gene expression (KLF4/GAPDH) was determined. Assuming that KLF4/GAPDH in the negative control was “1”, the relative value was calculated."}, "human iPS cells [2]": {"system": "human iPS cells", "test": "cell adhesion and growth, number of human iPS cells over time", "conditions": "bFGF(-)/CCL2(+) versus bFGF(+)/CCL2(-)", "procedure": "Human iPS cells were cultured under feeder conditions in the same manner as in Example 8, and the number of cells was measured every 48 hours. As a negative control, the same procedures were carried out except that bFGF was added instead of the CCL2. FIG. 17 is a graph showing the change with time in the number of the human iPS cells. The vertical axis indicates the number of cells (10^4 cells/ml), and the horizontal axis indicates the culture time (hr). CCL2(+) indicates the results obtained under the conditions of bFGF(−)/CCL2(+), and CCL2(−) indicates the results obtained under the conditions of bFGF(+)/CCL2(−)."}, "ERK1/2": {"system": "ERK1/2", "test": "Western blotting, phosphorylation of ERK1/2 in mouse iPS cells", "conditions": "CCL2 overexpressed, relative to negative control", "procedure": "The mouse iPS cells transfected with the Ccl2 expression vector were cultured for 24 hours in the same manner as in Example 1. After the culture, the mouse iPS cells were washed with PBS, and then were suspended in 100 μl of a mammalian m-PER lysis buffer. The suspension was passed through a 26-gauge needle for 10 minutes to homogenize the cells. Then, the suspension was centrifuged at 13,000 rpm and 4° C. for 5 minutes, and the supernatant was collected. The protein concentration in the supernatant was measured using a Pierce (registered trademark) BCA Protein assay (trade name, Thermo Scientific). Next, the supernatant was subjected to Western blotting to detect a target protein. Specifically, first, the supernatant (total protein: 10 μg) was applied to a Novex Gel electrophoresis system with 4%-12% Bis-Tris gels, and was blotted on a nitrocellulose membrane. Then, the membrane was incubated with a primary antibody against the target protein. After washing the membrane, the membrane was incubated with a labeled secondary antibody labeled with horseradish peroxidase, and a color-developing reaction was caused using a coloring reagent (trade name: ECL plus, GE Healthcare). Then, luminescence on the membrane was detected using a Fuji LAS-3000 luminescent image analyzer. […]"}},
  "data": [
    {"molecule": "B1", "values": [
      {"measurement": "ratio of phosphorylated STAT3 to non-phosphorylated STAT3 (pSTAT3/STAT3)", "setting": "STAT3", "result": "increased"},
      {"measurement": "undifferentiation potency, cell morphology", "setting": "human iPS cells [1]", "result": "little differentiated cells"},
      {"measurement": "phosphorylation of AKT (pAKT/AKT)", "setting": "AKT", "result": "not promoted"},
      {"measurement": "number of the cells", "setting": "human iPS cells [2]; as of 48 hours", "result": "greater"},
      {"measurement": "growth potential", "setting": "human iPS cells [2]; as of 144 hours (6th day)", "result": "improved further"},
      {"measurement": "phosphorylation of ERK1/2 (pERK1/2/ERK1/2)", "setting": "ERK1/2", "result": "not promoted"}
    ]}
  ]
}
